Data published in patent US20220025023A1 (AC IMMUNE, published 2022).
Where no end group is shown, it is not given here.

T1: TDP-210 peptide (human)
T1 construct: 8-mer of human TDP-43; same ELISA method as for the biotinylated 15-mers
T1 peptide: FFSQYGDV

T2: TDP-211 peptide (human)
T2 construct: 8-mer of human TDP-43; same ELISA method as for the biotinylated 15-mers
T2 peptide: FSQYGDVM

T3: TDP-212 peptide (human)
T3 construct: 8-mer of human TDP-43; same ELISA method as for the biotinylated 15-mers
T3 peptide: SQYGDVMD

T4: TDP-213 peptide (human)
T4 construct: 8-mer of human TDP-43; same ELISA method as for the biotinylated 15-mers
T4 peptide: QYGDVMDV

T5: TDP-214 peptide (human)
T5 construct: 8-mer of human TDP-43; same ELISA method as for the biotinylated 15-mers
T5 peptide: YGDVMDVF

T6: TDP-217 peptide (human)
T6 construct: 8-mer of human TDP-43; same ELISA method as for the biotinylated 15-mers
T6 peptide: VMDVFIPK

T7: TDP-218 peptide (human)
T7 construct: 8-mer of human TDP-43; same ELISA method as for the biotinylated 15-mers
T7 peptide: MDVFIPKP

T8: TDP-219 peptide (human)
T8 construct: 8-mer of human TDP-43; same ELISA method as for the biotinylated 15-mers
T8 peptide: DVFIPKPF

T9: TDP-220 peptide (human)
T9 construct: 8-mer of human TDP-43; same ELISA method as for the biotinylated 15-mers
T9 peptide: VFIPKPFR

T10: TDP-221 peptide (human)
T10 construct: 8-mer of human TDP-43; same ELISA method as for the biotinylated 15-mers
T10 peptide: FIPKPFRA

T11: TDP-222 peptide (human)
T11 construct: 8-mer of human TDP-43; same ELISA method as for the biotinylated 15-mers
T11 peptide: IPKPFRAF

T12: TDP-223 peptide (human)
T12 construct: 8-mer of human TDP-43; same ELISA method as for the biotinylated 15-mers
T12 peptide: PKPFRAFA

T13: TDP-224 peptide (human)
T13 construct: 8-mer of human TDP-43; same ELISA method as for the biotinylated 15-mers
T13 peptide: KPFRAFAF

T14: TDP-215 peptide (human)
T14 construct: same ELISA method as for the biotinylated 15-mers
T14 peptide: GDVMDVFI

T15: TDP-3 peptide (human)
T15 construct: Irrelevant control peptide; conjugated to Luminex beads in the assay; also called TDP-43 aa 310-370; irrelevant target
T15 peptide: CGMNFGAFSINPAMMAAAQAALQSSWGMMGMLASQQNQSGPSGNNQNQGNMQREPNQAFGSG

T16: TDP-1 peptide (human)
T16 construct: Immunogen peptide; conjugated to Luminex beads in the assay; also called TDP-43 aa 212-272
T16 peptide: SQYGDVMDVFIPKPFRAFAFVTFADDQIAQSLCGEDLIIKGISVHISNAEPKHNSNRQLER

T17: TP-24 peptide (human, also: biotinylated, site not given here)
T17 construct: 15-mer of human TDP-43 from the library spanning aa 199-285; captured on streptavidin plates
T17 peptide: REFFSQYGDVMDVFI

T18: TP-25 peptide (human, also: biotinylated, site not given here)
T18 construct: 15-mer of human TDP-43 from the library spanning aa 199-285; captured on streptavidin plates
T18 peptide: VMDVFIPKPFRAFAF

T19: TP-26 (also: biotinylated, site not given here)
T19 construct: also called TP-26 peptide
T19 peptide: FRAFAFVTFADDQIA

T20: TP-27 (also: biotinylated, site not given here)
T20 construct: also called TP-27 peptide
T20 peptide: ADDQIAQSLCGEDLI

T21: TP-28 (also: biotinylated, site not given here)
T21 construct: also called TP-28 peptide
T21 peptide: CGEDLIIKGISVHIS

T22: TP-29 (also: biotinylated, site not given here)
T22 construct: also called TP-29 peptide
T22 peptide: ISVHISNAEPKHNSN

T23: TP-30 (also: biotinylated, site not given here)
T23 construct: also called TP-30 peptide
T23 peptide: PKHNSNRQLERSGRF

T24: TP-31 (also: biotinylated, site not given here)
T24 construct: also called TP-31 peptide
T24 peptide: ERSGRFGGNPGGFGN


Tests used:
[1] = biological target: T1, TDP-210 peptide; assay: indirect ELISA, 8-mer peptide library
Description: (§1) Serum-free supernatants were harvested from stable hybridomas. The supernatants containing antibodies of interest were then screened by an indirect ELISA assay to determine epitopes. Epitopes were mapped using a library of TDP-43 15-mer peptides. Briefly, 96-well streptavidin-coated 96-well ELISA plates were incubated with 5 μg/mL of biotinylated 15-mer peptides spanning the amino acids (aa) 199-285 of human TDP-43 with 9 aa offset and 6 aa overlap. Plates were washed thoroughly with 0.05% Tween-20/PBS and then blocked with 1% bovine serum albumin (BSA) in 0.05% Tween-20/PBS for 1 hour at 37° C. The antibody contained in the hybridoma supernatant was then added at the indicated dilutions, and incubated for 2 hours at 37° C. after which the plates were washed as described previously. An AP-conjugated anti-mouse IgG secondary antibody (Jackson ImmunoResearch Laboratories, United Kingdom) was added at 1/1000 dilution in 0.05% Tween-20/PBS for 1 hour at 37° C. After the final wash, plates were incubated with pNPP (Sigma-Aldrich, Switzerland) an AP substrate solution, and read at 405 nm using an ELISA plate reader (Tecan).
(§2) Furthermore, antibodies were tested using an indirect ELISA on a peptide library of 8-mer peptides with 7 aa overlap covering the sequence of human TDP-43 from aa 210 to aa 231, using the same ELISA method as describe previously in this section.

[2] = biological target: T2, TDP-211 peptide; assay: indirect ELISA, 8-mer peptide library
Description: as §1, §2

[3] = biological target: T3, TDP-212 peptide; assay: indirect ELISA, 8-mer peptide library
Description: as §1, §2

[4] = biological target: T4, TDP-213 peptide; assay: indirect ELISA, 8-mer peptide library
Description: as §1, §2

[5] = biological target: T5, TDP-214 peptide; assay: indirect ELISA, 8-mer peptide library
Description: as §1, §2

[6] = biological target: T6, TDP-217 peptide; assay: indirect ELISA, 8-mer peptide library
Description: as §1, §2

[7] = biological target: T7, TDP-218 peptide; assay: indirect ELISA, 8-mer peptide library
Description: as §1, §2

[8] = biological target: T8, TDP-219 peptide; assay: indirect ELISA, 8-mer peptide library
Description: as §1, §2

[9] = biological target: T9, TDP-220 peptide; assay: indirect ELISA, 8-mer peptide library
Description: as §1, §2

[10] = biological target: T10, TDP-221 peptide; assay: indirect ELISA, 8-mer peptide library
Description: as §1, §2

[11] = biological target: T11, TDP-222 peptide; assay: indirect ELISA, 8-mer peptide library
Description: as §1, §2

[12] = biological target: T12, TDP-223 peptide; assay: indirect ELISA, 8-mer peptide library
Description: as §1, §2

[13] = biological target: T13, TDP-224 peptide; assay: indirect ELISA, 8-mer peptide library
Description: as §1, §2

[14] = biological target: T14, TDP-215 peptide; assay: indirect ELISA, 8-mer peptide library, OD 405 nm
Description: as §1, §2

[15] = biological target: T15, TDP-3 peptide; assay: Luminex bead assay, serial dilution of the antibody, MFI
[16] = biological target: T16, TDP-1 peptide; assay: Luminex bead assay, antibody serial dilution, TDP-1 peptide beads
[17] = biological target: T25, BSA (bovine, UniProt P02769); assay: indirect ELISA, control coat in the 15-mer series, hybridoma supernatant
T25 construct: not specified; also called bovine serum albumin
T25 sequence (P02769 25-607 limits assumed): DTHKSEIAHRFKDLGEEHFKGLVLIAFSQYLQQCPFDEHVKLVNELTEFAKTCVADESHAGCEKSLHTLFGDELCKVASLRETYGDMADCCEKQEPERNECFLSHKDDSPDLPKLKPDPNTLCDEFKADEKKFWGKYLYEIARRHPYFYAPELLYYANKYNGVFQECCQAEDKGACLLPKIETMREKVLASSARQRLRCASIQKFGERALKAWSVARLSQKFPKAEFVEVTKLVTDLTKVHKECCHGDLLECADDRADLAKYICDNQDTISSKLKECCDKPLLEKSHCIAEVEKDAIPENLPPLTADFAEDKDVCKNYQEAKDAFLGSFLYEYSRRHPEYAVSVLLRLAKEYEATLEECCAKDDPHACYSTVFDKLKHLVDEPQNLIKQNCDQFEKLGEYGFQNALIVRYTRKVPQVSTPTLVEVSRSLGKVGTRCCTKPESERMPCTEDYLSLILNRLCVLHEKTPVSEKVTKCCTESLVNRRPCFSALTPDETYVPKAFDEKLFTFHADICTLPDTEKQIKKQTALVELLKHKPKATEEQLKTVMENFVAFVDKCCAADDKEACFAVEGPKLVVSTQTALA

[18] = biological target: T17, TP-24 peptide; assay: indirect ELISA, biotinylated 15-mer peptide on streptavidin plate, hybridoma supernatant
Description: as §1

[19] = biological target: T18, TP-25 peptide; assay: as above
Description: as §1

[20] = biological target: T19, TP-26; assay: indirect ELISA, biotinylated 15-mer on streptavidin plate, hybridoma supernatant
Description: as §1

[21] = biological target: T20, TP-27; assay: as above
Description: as §1

[22] = biological target: T21, TP-28; assay: as above
Description: as §1

[23] = biological target: T22, TP-29; assay: as above
Description: as §1

[24] = biological target: T23, TP-30; assay: as above
Description: as §1

[25] = biological target: T24, TP-31; assay: as above
Description: as §1

| binding result [15] | EC50 [16] [nM] | binding result [17] | OD [18] | OD [19] | binding result [20] | binding result [21] | binding result [23] | binding result [24] | binding result [25] | Binder | other results |
| --- | --- | --- | --- | --- | --- | --- | --- | --- | --- | --- | --- |
| no binding (tested: about 20000 pM) | < 0.01 | no binding | 2.5 O.D. (405 nm) | 1 O.D. (405 nm) | no binding | no binding | no binding | no binding | no binding | ACI-7062-401A2-Ab2 (antibody, IgG1, V domains shown, also called 401A2C6; clone 2) VH: DVQLVESGGGLVQPGGSRRLSCAASGFTFSRFGMHWVRQAPEKGLEWVAYIRSGSDIIYYADSVKGRFTISRDNPENTLFLQMTSLRSEDTAMYYCARSGTTVPFDYWGQGTSLTVSS VL: DIVMTQSPSSLAMSVGQKVTMSCKSSQSLLNSGDQKNYLAWYQQKPGQSPELLLYFASTRASGVPDRFIGSGSGTDFSLTISSVQAEDLADYFCQQHYSIPLTFGAGTKLELKR | binding result [1]: no binding; binding result [2]: no binding; binding result [3]: no binding; binding result [4]: no binding; binding result [5]: no binding; binding result [6]: no binding; binding result [7]: no binding; binding result [8]: no binding; binding result [9]: no binding; binding result [10]: no binding; binding result [11]: no binding; binding result [12]: no binding; binding result [13]: no binding; binding result [14]: binds; binding result [22]: no binding |
| no binding (tested: about 20000 pM) | < 0.01 | no binding | 4 O.D. (405 nm) | 0.9 O.D. (405 nm) | no binding | no binding | no binding | no binding | no binding | ACI-7062-404D6-Ab2 (antibody, IgG3, V domains shown, also called 404D6E11; clone 4) VH: QVTLKESGPGILQPSQTLSLTCSFSGFSLSTYGIGVGWIRQPSGKGLEWLAHIWWNDYKYYNTALKSRLTISKDTSNNRVFLKIASVDTADTATYYCARVYGNLYYFDYWGQGTTLTVSS VL: DVLMTQTPLSLPVSLGDQASISCRSSQSIVHGSGNTYLEWYLQKPGQSPKLLIYKVSNRFSGVPDRFSGSGSGTDFTLRISRVEAEDLGVYYCFQGSHVPTFGAGTKLELKR |  |
